According to publication PMC11811016 (Nature Communications, 2025):

Target: T1, recombinant his-PGC-1α (mouse, UniProt O70343 1-797, labeled with red-tris-NTA 2nd generation His-tag labeling kit)
T1 sequence (looked up): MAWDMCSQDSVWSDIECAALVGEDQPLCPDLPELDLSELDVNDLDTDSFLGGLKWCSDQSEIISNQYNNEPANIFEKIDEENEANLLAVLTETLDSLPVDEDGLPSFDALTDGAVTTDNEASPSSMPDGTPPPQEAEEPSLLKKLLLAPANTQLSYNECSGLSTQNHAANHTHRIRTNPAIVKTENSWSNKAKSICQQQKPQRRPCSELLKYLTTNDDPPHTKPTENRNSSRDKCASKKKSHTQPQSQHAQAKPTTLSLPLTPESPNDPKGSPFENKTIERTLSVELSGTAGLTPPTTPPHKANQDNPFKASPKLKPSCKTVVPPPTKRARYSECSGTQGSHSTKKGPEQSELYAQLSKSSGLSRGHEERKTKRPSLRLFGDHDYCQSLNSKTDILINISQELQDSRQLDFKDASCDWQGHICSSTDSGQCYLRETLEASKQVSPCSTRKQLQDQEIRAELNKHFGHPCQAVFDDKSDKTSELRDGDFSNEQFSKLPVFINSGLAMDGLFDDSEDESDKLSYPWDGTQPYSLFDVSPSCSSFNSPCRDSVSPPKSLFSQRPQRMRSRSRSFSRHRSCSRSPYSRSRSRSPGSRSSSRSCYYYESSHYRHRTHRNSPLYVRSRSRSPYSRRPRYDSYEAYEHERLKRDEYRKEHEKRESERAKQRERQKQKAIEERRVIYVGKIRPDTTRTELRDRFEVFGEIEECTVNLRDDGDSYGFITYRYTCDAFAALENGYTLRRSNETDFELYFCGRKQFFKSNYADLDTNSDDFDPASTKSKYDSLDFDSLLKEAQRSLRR
Assay: MST

Kd: 1730 nM
B1: purified KMT5C protein (his tag cleaved) (enzyme)
chain: not shown
